Data on one substance can be found in patent US20030190311A1.

pKd: −log10 of the molar value.

One assay addresses murine FcRn (murine). In words: BIAcore SPR, equilibrium/Scatchard, soluble FcRn over immobilized IgG1, pH 6.0, 25 C. (SPR reads the build-up and loss of mass on a sensor chip optically.)
The target of the next assay is human FcRn (human). The assay is described as above.
Sequence of human FcRn (human) (chain, as listed by the source limits assumed, chain 1 of 2): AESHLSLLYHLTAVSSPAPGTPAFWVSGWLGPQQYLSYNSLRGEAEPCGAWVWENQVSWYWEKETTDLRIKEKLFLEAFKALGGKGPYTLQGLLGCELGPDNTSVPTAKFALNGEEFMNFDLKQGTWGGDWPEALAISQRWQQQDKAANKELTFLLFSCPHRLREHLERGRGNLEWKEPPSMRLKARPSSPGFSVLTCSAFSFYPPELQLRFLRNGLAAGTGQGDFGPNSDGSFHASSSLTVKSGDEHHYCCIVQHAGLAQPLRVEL
Sequence of human FcRn (human) (P61769 21-119 limits assumed, chain 2 of 2): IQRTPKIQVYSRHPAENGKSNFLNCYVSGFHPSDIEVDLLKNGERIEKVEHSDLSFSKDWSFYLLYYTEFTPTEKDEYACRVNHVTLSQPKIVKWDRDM

Sequence of murine FcRn (murine) (chain, as listed by the source limits assumed, chain 1 of 2): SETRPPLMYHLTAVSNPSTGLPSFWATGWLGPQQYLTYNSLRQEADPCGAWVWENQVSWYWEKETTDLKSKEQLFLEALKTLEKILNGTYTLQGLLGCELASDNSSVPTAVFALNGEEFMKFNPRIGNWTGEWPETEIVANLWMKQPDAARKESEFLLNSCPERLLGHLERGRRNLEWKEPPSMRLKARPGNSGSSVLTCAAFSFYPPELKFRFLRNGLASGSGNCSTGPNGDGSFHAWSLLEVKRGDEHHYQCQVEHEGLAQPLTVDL
Sequence of murine FcRn (murine) (P01887 21-119 limits assumed, chain 2 of 2): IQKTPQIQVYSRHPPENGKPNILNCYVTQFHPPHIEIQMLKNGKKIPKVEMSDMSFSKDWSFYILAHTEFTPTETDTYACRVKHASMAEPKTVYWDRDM

As usually defined, the pKd is −log10 of the Kd, conventionally taken in molar units. For the substance “wild type human IgG1 MEDI-493 (SYNAGIS) (antibody)”, the negative-log Kd (pKd) in the assay with murine FcRn (murine) is 6.57; with human FcRn (human) it was 5.60.
